Experimental findings from patent US20210032313A1 (Daiichi Sankyo, published 2021) are described below.

Experiment [1] deals with T1, human KLK5 (human, UniProt Q9Y337 67-293).
T1 sequence: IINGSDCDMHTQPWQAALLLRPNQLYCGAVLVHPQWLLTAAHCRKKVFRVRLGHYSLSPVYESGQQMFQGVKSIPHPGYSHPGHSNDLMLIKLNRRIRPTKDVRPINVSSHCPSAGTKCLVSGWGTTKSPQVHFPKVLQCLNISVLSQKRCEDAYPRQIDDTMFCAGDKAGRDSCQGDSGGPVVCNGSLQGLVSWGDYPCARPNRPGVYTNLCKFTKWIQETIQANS
Nature of the experiment: cell-based or functional assay.

A further experiment concerns the target human KLK7 (human, UniProt P49862 30-253). The experiment is described as follows: cell-based or functional assay.
A further experiment has as its target T2, human KLK14 (human, UniProt Q9P0G3 25-251).
T2 sequence: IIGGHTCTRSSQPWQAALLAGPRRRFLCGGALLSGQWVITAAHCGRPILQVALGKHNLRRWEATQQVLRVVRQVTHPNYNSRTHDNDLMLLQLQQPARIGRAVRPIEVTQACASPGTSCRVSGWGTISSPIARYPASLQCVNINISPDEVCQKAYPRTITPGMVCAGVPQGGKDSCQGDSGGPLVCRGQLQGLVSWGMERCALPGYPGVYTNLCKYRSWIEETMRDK
The experiment is described as follows: cell-based or functional assay.

A further experiment deals with bChymotrypsin. The experiment is described as follows: fluorogenic peptide substrate cleavage, 1 µM inhibitor. As to the method:
FIG. 3A includes graphs to evaluate the cross-reactivity of each inhibitory peptide with proteases, using the degradation of a peptide substrate as an index. For evaluating the Bovine trypsin inhibitory activity, trypsin (Pierce, 20233) with a final concentration of 5 nM and a substrate peptide Boc-Val-Pro-Arg-AMC (R&D Systems, Inc., ES011) with a final concentration of 100 μM were used. For evaluating the Human trypsin inhibitory activity, trypsin (Sigma-Aldrich Co. LLC, T6424) with a final concentration of 1 nM and a substrate peptide Boc-Val-Pro-Arg-AMC (R&D Systems, Inc., ES011) with a final concentration of 100 μM were used. For evaluating the Bovine α-chymotrypsin inhibitory activity, chymotrypsin (Worthington Biochemical Corporation, LS001434) with a final concentration of 10 nM and a substrate peptide Suc-Leu-Leu-Val-Tyr-MCA (PEPTIDE […], INC., 3120-v) with a final concentration of 100 μM were used.
(§1) The specificities for other proteases were evaluated using the degradation of a substrate peptide as an index. As in the method described in (3-1), 25 μL each of a protease and a sample diluted with an assay buffer were mixed (to a final concentration of sample of 1 μM), followed by a reaction at 37° C. for 20 minutes. Thereafter, 50 μL of a substrate diluted with an assay buffer was added thereto, and the fluorescence signal was measured using Enspire (PerkinElmer). An assay buffer (50 mM Tris, 150 mM NaCl, pH 8.0) was used for the evaluation of the protease activity, and a PROTEOSAVE® SS96F black plate (Sumitomo Bakelite Co., Ltd.) was used for the reaction and the measurement. The combinations of the protease and the substrate used for the evaluation of the specificity were as follows.

The next experiment has as its target T3, KLK12 (human, UniProt Q9UKR0).
T3 construct: commercial enzyme (R&D Systems, 3095-SE); 0.1 µg/mL in the assay; substrate Boc-Val-Pro-Arg-AMC 100 µM; also called Human KLK12; hKLK12
T3 sequence (protease, looked up): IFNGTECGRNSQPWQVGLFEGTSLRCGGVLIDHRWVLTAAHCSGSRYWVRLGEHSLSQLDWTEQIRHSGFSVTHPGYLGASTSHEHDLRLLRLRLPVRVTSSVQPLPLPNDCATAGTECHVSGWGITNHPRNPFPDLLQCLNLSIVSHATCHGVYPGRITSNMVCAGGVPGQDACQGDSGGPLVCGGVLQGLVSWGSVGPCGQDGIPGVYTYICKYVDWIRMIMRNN
The description is as above. The procedure: FIG. 3G includes graphs to evaluate the cross-reactivity of each inhibitory peptide with proteases, using the degradation of a peptide substrate as an index. For evaluating the Human KLK7 inhibitory activity, hKLK7 with a final concentration of 1 μg/mL and a substrate peptide Mca-Arg-Pro-Lys-Pro-Val-Glu-Nval-Trp-Arg-Lys (Dnp)-NH₂ (R&D Systems, Inc., ES002) with a final concentration of 20 μM were used. For evaluating the Human KLK8 inhibitory activity, hKLK8 (UniProt: 060259, prepared by the inventors) with a final concentration of 5 nM and a substrate peptide Boc-Val-Pro-Arg-AMC (R&D Systems, Inc., ES011) with a final concentration of 100 μM were used. For evaluating the Human KLK12 inhibitory activity, hKLK12 (R&D Systems, Inc., 3095-SE) with a final concentration of 0.1 μg/mL and a substrate peptide Boc-Val-Pro-Arg-AMC (R&D Systems, Inc., ES011) with a final concentration of 100 μM were used.
as §1

Experiment [2] addresses T1, human KLK5. The experiment is described as follows: SPR, BIAcore T200; biotinylated KLK5 captured on chip, peptide as analyte; single cycle kinetics, 1:1 model. As to the method: In order to measure the binding affinity of the KLK5 inhibitory peptides, surface plasmon resonance analysis was conducted using BIAcore T 200 (GE healthcare). A complementary strand of DNA of a streptavidin conjugate was captured by hybridization on Sensor Chip CAP (GE healthcare) on which single-stranded DNA immobilized. Next, KLK5 biotinylated using EZ-Link NHS-PEG4-Biotin (Thermo Fisher Scientific) was captured at a flow rate of 10 μL/min to immobilize about 10 RU. Thereafter, the KLK5 inhibitory peptide, serially diluted 2-fold with HBS-EP (0.625 to 10 nM), was added thereto as an analyte at a flow rate of 30 μL/min. In the BIAcore T 200 Evaluation software (version 2.0), kon and koff were calculated by analysis using Single cycle kinetics in a simple one-to-one Langmuir binding model. The dissociation constant KD was calculated as a ratio of koff/kₒₙ. Further, multiple KLK5 inhibitory peptides were measured by regenerating Sensor Chip CAP using a Regeneration buffer attached to a Biotin CAPture Kit (GE healthcare) and repeatedly capturing biotinylated KLK5.

human KLK7, sequence (P49862 30-253): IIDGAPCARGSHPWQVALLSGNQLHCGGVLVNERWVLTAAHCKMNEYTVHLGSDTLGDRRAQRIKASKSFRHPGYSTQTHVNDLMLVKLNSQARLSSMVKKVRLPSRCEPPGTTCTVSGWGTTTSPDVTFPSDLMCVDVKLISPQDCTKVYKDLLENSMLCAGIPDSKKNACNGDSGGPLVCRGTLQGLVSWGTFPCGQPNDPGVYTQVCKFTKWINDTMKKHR

B1: KLK5/KLK14 inhibitory peptide K51069 (peptide)
chain: GPQFGLFSKYRTPNCSQVVETYCNRDYDPVCGSDMSTYANECTLCMKIREGGHNIKIIRNGPCGG
notes: SPINK2 mutant peptide made in E. coli
In general, Kd refers to the free concentration of one partner at which half of the binding sites on the other are occupied at equilibrium, for simple one-to-one binding. Read a high Kd as weaker binding. For orientation: koff means a measure of how fast the partners let go of each other. Usually kon stands for the rate constant with which the complex forms. Regarding B1, the “IC50(nM) for hKLK5” value in the experiment with human KLK5 [1] amounted to 6.8 nM. In the experiment with human KLK7, the “IC50(nM) for hKLK7” value is greater than 1000 nM. The “IC50(nM) for hKLK14” value with human KLK14 stood at 72 nM. Also, in the experiment with bChymotrypsin, the binding result is “binds”. Also, the binding result in the experiment with KLK12 is “binds”. Further, in the experiment with human KLK5 [2], the Kd is no more than 0.001 nM, the koff was no more than 1e-06 s⁻¹ and the kon is 940000 M⁻¹ s⁻¹.

B2: KLK5/KLK14 inhibitory peptide K50015 (peptide)
chain: GPQFGLFSKYRTPNCYDTTTHYCSREYDPVCGSDMSTYANECTLCMKIREGGHNIKIIRNGPCGG
notes: as for B1
As to B2, in the experiment with human KLK5 [1], the “IC50(nM) for hKLK5” value worked out at 6.8 nM. Also, the “IC50(nM) for hKLK7” value with human KLK7 is greater than 1000 nM. For the same molecule, the “IC50(nM) for hKLK14” value with human KLK14 amounted to 17 nM. Moreover, in the experiment with bChymotrypsin, the binding result is reported as “binds”. Further, the binding result in the experiment with KLK12 is “binds”. In the experiment with human KLK5 [2], the Kd was no more than 0.0011 nM, the koff is no more than 1e-06 s⁻¹ and the kon was found to be 940000 M⁻¹ s⁻¹.
